{
  "source": "the domain aggregation screens of Martell et al. (2025)",
  "data": [
    {"test": "soluble fraction after stress (log2 fold change); higher = more stays soluble; pooled small domains, quantitative proteomics", "settings": "stress: 50 degC", "how_it_was_run": "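Pooled custom libraries of small protein domains were each held under stress at 50°C. The read-out, high-throughput quantitative proteomics, tracked how much of each protein stayed soluble. This is reported as a base-two log fold change used to indicate aggregation propensity. Higher values mean more protein remains in solution.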", "values": [
      {"sequence": "HMNDVEAIDDALKDLHKVSPDLAALVEMKFFGGMTEPEISEILGVSERTVRREWEKARAALLVLLE", "soluble fraction (log2)": -1.41},
      {"sequence": "HMEDYYKILGVQSNSNPDDIKKAYRKLSLKHHPDRGGDASEFKKINEAYQTLGTPEKRKMYDMQQNN", "soluble fraction (log2)": -0.0117},
      {"sequence": "HMYAPKIETIQVPQDKIREVIGTGGKVIREIVETTGAKIDIGDTGLIKVASSDGEAIRAALDWINSIVAE", "soluble fraction (log2)": 0.117},
      {"sequence": "HMADKGTITNQQEKILKALILFPEGASIEEIQKAADLGIDKRQFQRRLNTLIESGQINRTGKSRGTKYHTI", "soluble fraction (log2)": 0.0555},
      {"sequence": "HMRKPISQEIVDEVLKLAKNNPDWGYDRIAGVMKYLKYDVSATTVRHILDDNGIVPDPERRLR", "soluble fraction (log2)": 0.333},
      {"sequence": "HMSELTKEIGKRIHDFRKSRGLNQEELARLIYKSKATLSKYEKGEIAIDLDTLKQLALALHVRMEQLLPPT", "soluble fraction (log2)": -0.0472},
      {"sequence": "HMNREIVVYITGAVDNPGLYRLPLDSRLDDVLKLAVLSTNADREVLNPAQKLKDGQKIVVPYIVE", "soluble fraction (log2)": -0.111},
      {"sequence": "HMTIQNSILDEIPNIGASRKRAILEAFGSVHRLRKASPEMISAKVEGIGPEMAQAIHDYLVKHPAT", "soluble fraction (log2)": 0.19},
      {"sequence": "HMADVSPEAQHKMVEAFAQFGVTKEHIEQRIQRRLDAIQPAQMVTLKRIFASLRDGMSTPAEWFE", "soluble fraction (log2)": -0.227},
      {"sequence": "HMTGMEASLSKLLQGEQFADLRKALIDKGIRKLEAFKRLNLWVFMNRNRLYSIGQRQTVYSTLQRALASE", "soluble fraction (log2)": 0.0329},
      {"sequence": "HMKTKTIMSTGAREDLVKMINEYYYSKNYIITEDNRIYNTKTEKFMDDLSVKFYRGRWKVIRN", "soluble fraction (log2)": -0.813},
      {"sequence": "HMTNEQLSKAKSWVQIAVYAAEKLYGAGNGDQKLVYAEEILRKHGIRLDTATLKAMIDAQIKEMEN", "soluble fraction (log2)": -0.149},
      {"sequence": "HMEASSTAIQAMIRRLIDDENPRKPLSDAKLADLLKSSGIPVARRTVAKYREAMNISASHERVRI", "soluble fraction (log2)": -0.356},
      {"sequence": "HMSDSLVLTGVAYVDGKPVVTLFDKVKKESLVVTDQPNLKGWTLVEATQSSDIKRATAKVNIGGEPVSIRY", "soluble fraction (log2)": 0.117},
      {"sequence": "HMSMTVHGALRLLQLPTIADRPYTLKEIREAYREQAQNHHPDAGGSADAMRRLNEAYQFLKERYRQA", "soluble fraction (log2)": -0.16},
      {"sequence": "HMHEGNWTLPNPMPIGTTLTLPEHSRLYISNLAGQRVFETSATSVEIPLLPKGTYLLRLETMNGHTTRKIL", "soluble fraction (log2)": -0.0423},
      {"sequence": "HMKKPANLISEDRMVEVLYDVIIINTAKGVNKQLLQNNINNPLNYIYRSHGIDSLQFAESNAYYTS", "soluble fraction (log2)": -0.371},
      {"sequence": "HMNQYIFVLNEKGARITSFVDNTIPKEELIALAKQDYPNAADYIYSADGDSMLDEFMRGKLYVNGQFVAA", "soluble fraction (log2)": -0.69},
      {"sequence": "HMGAKEHLAGETLRMAVELLSEKQGIPAEQALIRFISSPVYDALYDLDTGMWTQGPTRLLEAFEALE", "soluble fraction (log2)": -1.7},
      {"sequence": "HMNENFPYRLKEMVVVQSRTWPGINKPGGVGQVMKINPEAGTVNVKYVLGGSEKNIELKYVTSNDLNSK", "soluble fraction (log2)": -0.536},
      {"sequence": "HMDKLFNRQTLGGVELTQKQIEDLNAGKAIFVEGMQRKDGEVFSSYVKLDEATGRPSYTRYNPDSP", "soluble fraction (log2)": 0.441},
      {"sequence": "HMSTRLIGEIGVVTKDLGAGLKENGSIQIGREEWPAETKDMEHIPMGTRVKVIHIEGTRLVVEA", "soluble fraction (log2)": -0.629},
      {"sequence": "HMKDYKTIFQELIQKKHKTSPIYKSYEYNDMFKAEVYVNDKSFADGIGKSKKEAETDAAKKALEKIEMA", "soluble fraction (log2)": 0.0966},
      {"sequence": "HMRITTKNYFKAISEVGFENLPEVLKKSHLVIEEKTNKGNDWGIYENDAEAKKVFDLAFDKLEEFIDRKED", "soluble fraction (log2)": 0.45},
      {"sequence": "HMSLDAAAVASKLIKRLSKSPGRRFALDDLAVDVGLPHEQGRPLVRSALELLVRTQQAVEGPPNVFRLFF", "soluble fraction (log2)": -1.57},
      {"sequence": "HMRRVGTALNRSHKVSYGESIQSIAARYNVNPTMLREYNRLKPEATITPGQILRIPPATIAS", "soluble fraction (log2)": 0.00426},
      {"sequence": "HMTESFEFTMNDLVQNNLIMGSGAKERRIAVGEALGIGYTNAKQFLSRLNHYGITRKEFDDEIEKVNQN", "soluble fraction (log2)": -0.158},
      {"sequence": "HMHRFAVLDTVREVAAGGVAATLSIGVGRDADSFDALFKNASMALEMALSRGGDQAVVKDRMNFQFYGG", "soluble fraction (log2)": 0.0659},
      {"sequence": "HMEPEVEITYFKPDERKAGGAYVTVTGAVIKVDDFERLITMQDGTKIPMDDILSIDGELFLS", "soluble fraction (log2)": -0.333},
      {"sequence": "HMNIAAVIGQTGVLQDDLKAGEQGTVKADNKLWTAVLAEGEEAVKKEERVDIVAVEGVKLIVRRNI", "soluble fraction (log2)": 0.0397},
      {"sequence": "HMGVDASVDSKLDLLSQVLDSDQVKEQLPEAVLEQLAQNLDRWRSLHEESELQDDDIAELNRLLGLFGLG", "soluble fraction (log2)": 0.0425},
      {"sequence": "HMERFRQVNAGMTRDDIYQLLGKPTEKTPFPLKNEEVWSWRHQADGQTVALFNIHLDPDGRVTTTSQSMDL", "soluble fraction (log2)": 0.021},
      {"sequence": "HMKILNYQSLVGKKGITKSMLRPAGIVEIEGRRYDVVTRGEFIEPGKMITVDEVQGNRIIVQIERE", "soluble fraction (log2)": -0.165},
      {"sequence": "HMQARDQNVDEGKALLEKEFSRLALENLDRDKLANAVNYPTRDDMYAAIGAGDLRVGQVLHQAQQLF", "soluble fraction (log2)": 0.142},
      {"sequence": "HMKSLPQKLLAYLESQGLTRDEAGEFVKQGLKITSNDVDQIQLLLANTEVIDIKLQEFIAQK", "soluble fraction (log2)": 0.217},
      {"sequence": "HMPERLTYVHPDGAEPMRADKALAAFLSGRISRSRLLGSFSAGKVMAGGKPVEKKLLLRAGDALEVELPEP", "soluble fraction (log2)": 0.139},
      {"sequence": "HMSHLTKKQEEVLLFIRDYYEEEGRSPSYSDIQHHFGLKSKSSVQDYIGYLKKAGFLQKSVGSRAIELV", "soluble fraction (log2)": -2.05},
      {"sequence": "HMRGADNAASILKEVGPHPEDGKPITVRSGRYGPYVKHGTTNATLPKDIKPEEITLDEAIALINERVAKG", "soluble fraction (log2)": -0.243},
      {"sequence": "HMKTAWDELNEVIEAYRGQESALIEVLHKAQEIMGYLPRDVQEAIAEGLHVPLNKVYGVVSFYHHFSV", "soluble fraction (log2)": 0.178},
      {"sequence": "HMQYPSSLDSRAKQSLYDNLERNEILALALDNVIQSNKLDGWRDGGIKERKLRLAINNLLKNDEHTDNIME", "soluble fraction (log2)": -0.0155},
      {"sequence": "HMNNNIFVYPNPSINYINIDSDEEIWKLEIIQMSGEKINILPFSKRIDISFLSKGLYILNFNNYYIKFIK", "soluble fraction (log2)": -0.187},
      {"sequence": "HMGPVRRDLEINGRMVPLTIREHARATRITLRIEPGGQALRLTIPPGLPTREVDSFLTRHHGWLMTKLAHI", "soluble fraction (log2)": -1.79},
      {"sequence": "HMSSEQRSVLFPNLAETDKVAVIEALMAAGVNARVDSASGRVTVPSGDYYNSRAILAAQGLPTS", "soluble fraction (log2)": 0.0696},
      {"sequence": "HMSEYTRGELVSSLEAGEVAAVSIRPNRETPTGEAQIVLSDGQHRVLYVTDVREIEELVSSYGLNPQVEK", "soluble fraction (log2)": 0.233},
      {"sequence": "HMEAVIENAAIIKQNSGGYAVRATVNGVDLGMKPVERATALLYFSLTDKLEKDRLLSHTLQKTYGDLSA", "soluble fraction (log2)": -0.254},
      {"sequence": "HMSLPKIVVPTDVTVSQLAKYLEVDAISIIKQLFGMGVVASLNQRLEDEIIQLIGNEFGKEIIFSE", "soluble fraction (log2)": -0.054},
      {"sequence": "HMKPGNFILDLLRTYGQKGTSAQNLMSSSRMFNFSENLIRVTLSRLAARGLIENFERGHYRLAE", "soluble fraction (log2)": -0.333},
      {"sequence": "HMTSEPFYNPRRPQPYWTSETDRHTTYADAVRALAREFSETPEWVESNMGETNDLQEIRRNLSRVKSG", "soluble fraction (log2)": 0.144},
      {"sequence": "HMSTKYSSNIISLVKGLMEEDQYKDLMGPPLKKEIIKKVESITDTFPYKFDKDDKEFIVKKVLISLRK", "soluble fraction (log2)": -1.29},
      {"sequence": "HMPALATKDSVLDGRAEVVSYVRDTSVFYLRVRVPQKQGYRSRRIDGVSTLPEAITKALDTYMDLGT", "soluble fraction (log2)": -2.57},
      {"sequence": "HMITMADKIDTALSEMAANNEKINVSQVAKRLGISNSAIYKFNPEKIPDIQTAQKRQKHKAEAIAVGTEN", "soluble fraction (log2)": 0.215},
      {"sequence": "HMKSIPKIKWNSTLENIKNFEYQDNFFESKEMYDLLVSFYKYGFVIIKNIPTNNNFIVKFANSIGS", "soluble fraction (log2)": -0.021},
      {"sequence": "HMNVYEVKFGDTLDEIIKTYLFDIPVKKSILRQAVILANPHAFRRNNPHWMYSDRQLKLPELQDIRRAIF", "soluble fraction (log2)": -0.276},
      {"sequence": "HMSFMPDPSIHDAITYTVRSGDYLGKISTTFGVKVSDLQKWNSIKSNIIYPGQKLTVWVSSNKRESLQ", "soluble fraction (log2)": -1.31},
      {"sequence": "HMQAVKQIKVERGMTLEKIAQSEFGDSTRWGEIVEVNNLRAPYISDDPTETRDGVLKPGSNLLIPIP", "soluble fraction (log2)": 0.094}
    ]}
  ]
}
